Assay results from patent publication US20200216495A1 (ADRX, published 2020).
Where “and” joins values, the source holds several entries; their conditions need not be identical. Identical values can stand only once. Square brackets hold non-standard residues; d marks the D form. Ends that are not written are not given here. dMet(O) = CS(=O)CC[C@@H](N)C(=O)O

B1: wrlriww (PEPTIDE ID NO: 103) (peptide)
peptide: [dW][dR][dL][dR][dI][dW][dW]
B2: rirwywk (PEPTIDE ID NO: 311) (peptide)
peptide: [dR][dI][dR][dW][dY][dW][dK]
B3: prirlhw (PEPTIDE ID NO: 33) (peptide)
peptide: [dP][dR][dI][dR][dL][dH][dW]
B4: frlklrfh (PEPTIDE ID NO: 426) (peptide)
peptide: [dF][dR][dL][dK][dL][dR][dF][dH]
B5: rirlrw (PEPTIDE ID NO: 38) (peptide)
peptide: [dR][dI][dR][dL][dR][dW]
B6: lkirixy (PEPTIDE ID NO: 297) (peptide)
peptide: [dL][dK][dI][dR][dI][dMet(O)][dY]
B7: kikikw (PEPTIDE ID NO: 66) (peptide)
peptide: [dK][dI][dK][dI][dK][dW]
B8: rlrihww (PEPTIDE ID NO: 164) (peptide)
peptide: [dR][dL][dR][dI][dH][dW][dW]
B9: wriwiryw (PEPTIDE ID NO: 105) (peptide)
peptide: [dW][dR][dI][dW][dI][dR][dY][dW]
B10: frlkvrwf (PEPTIDE ID NO: 4) (peptide)
peptide: [dF][dR][dL][dK][dV][dR][dW][dF]
B11: vrwwwrlk (PEPTIDE ID NO: 204) (peptide)
peptide: [dV][dR][dW][dW][dW][dR][dL][dK]
B12: lkirihyr (PEPTIDE ID NO: 291) (peptide)
peptide: [dL][dK][dI][dR][dI][dH][dY][dR]
B13: wkvkfqhw (PEPTIDE ID NO: 94) (peptide)
peptide: [dW][dK][dV][dK][dF][dQ][dH][dW]
B14: yhlklhyw (PEPTIDE ID NO: 440) (peptide)
peptide: [dY][dH][dL][dK][dL][dH][dY][dW]
B15: wtlrihw (PEPTIDE ID NO: 305) (peptide)
peptide: [dW][dT][dL][dR][dI][dH][dW]
B16: wrlritw (PEPTIDE ID NO: 314) (peptide)
peptide: [dW][dR][dL][dR][dI][dT][dW]
B17: wikiwr (PEPTIDE ID NO: 29) (peptide)
peptide: [dW][dI][dK][dI][dW][dR]
B18: wrlkvnw (PEPTIDE ID NO: 296) (peptide)
peptide: [dW][dR][dL][dK][dV][dN][dW]
B19: felrlhwh (PEPTIDE ID NO: 133) (peptide)
peptide: [dF][dE][dL][dR][dL][dH][dW][dH]
B20: wkvqvrw (PEPTIDE ID NO: 89) (peptide)
peptide: [dW][dK][dV][dQ][dV][dR][dW]
B21: kvrwwlrw (PEPTIDE ID NO: 201) (peptide)
peptide: [dK][dV][dR][dW][dW][dL][dR][dW]
B22: arlrihw (PEPTIDE ID NO: 312) (peptide)
peptide: [dA][dR][dL][dR][dI][dH][dW]
B23: lklkikhf (PEPTIDE ID NO: 154) (peptide)
peptide: [dL][dK][dL][dK][dI][dK][dH][dF]
B24: wrlevrw (PEPTIDE ID NO: 315) (peptide)
peptide: [dW][dR][dL][dE][dV][dR][dW]
B25: fkiklkw (PEPTIDE ID NO: 35) (peptide)
peptide: [dF][dK][dI][dK][dL][dK][dW]
B26: rrlrihw (PEPTIDE ID NO: 290) (peptide)
peptide: [dR][dR][dL][dR][dI][dH][dW]
B27: fhirlewh (PEPTIDE ID NO: 139) (peptide)
peptide: [dF][dH][dI][dR][dL][dE][dW][dH]
B28: lkifiyyh (PEPTIDE ID NO: 302) (peptide)
peptide: [dL][dK][dI][dF][dI][dY][dY][dH]
B29: lrlrikhf (PEPTIDE ID NO: 150) (peptide)
peptide: [dL][dR][dL][dR][dI][dK][dH][dF]
B30: rlkvrww (PEPTIDE ID NO: 298) (peptide)
peptide: [dR][dL][dK][dV][dR][dW][dW]
B31: wmlrihw (PEPTIDE ID NO: 304) (peptide)
peptide: [dW][dM][dL][dR][dI][dH][dW]
B32: fhihikfh (PEPTIDE ID NO: 437) (peptide)
peptide: [dF][dH][dI][dH][dI][dK][dF][dH]
B33: hyhirikl (PEPTIDE ID NO: 300) (peptide)
peptide: [dH][dY][dH][dI][dR][dI][dK][dL]
B34: fririhhf (PEPTIDE ID NO: 113) (peptide)
peptide: [dF][dR][dI][dR][dI][dH][dH][dF]
B35: wrlavrw (PEPTIDE ID NO: 301) (peptide)
peptide: [dW][dR][dL][dA][dV][dR][dW]
B36: fklhirhw (PEPTIDE ID NO: 128) (peptide)
peptide: [dF][dK][dL][dH][dI][dR][dH][dW]
B37: lwrlkvrw (PEPTIDE ID NO: 202) (peptide)
peptide: [dL][dW][dR][dL][dK][dV][dR][dW]
B38: lkihihyh (PEPTIDE ID NO: 295) (peptide)
peptide: [dL][dK][dI][dH][dI][dH][dY][dH]
B39: wrlnvrw (PEPTIDE ID NO: 306) (peptide)
peptide: [dW][dR][dL][dN][dV][dR][dW]
B40: felhikwh (PEPTIDE ID NO: 134) (peptide)
peptide: [dF][dE][dL][dH][dI][dK][dW][dH]
B41: lhirlrhw (PEPTIDE ID NO: 153) (peptide)
peptide: [dL][dH][dI][dR][dL][dR][dH][dW]
B42: wrlwvrww (PEPTIDE ID NO: 310) (peptide)
peptide: [dW][dR][dL][dW][dV][dR][dW][dW]
B43: wkvnvrlw (PEPTIDE ID NO: 95) (peptide)
peptide: [dW][dK][dV][dN][dV][dR][dL][dW]
B44: wrirlryw (PEPTIDE ID NO: 104) (peptide)
peptide: [dW][dR][dI][dR][dL][dR][dY][dW]
B45: wkvqvrlw (PEPTIDE ID NO: 2) (peptide)
peptide: [dW][dK][dV][dQ][dV][dR][dL][dW]
B46: wlrvqvkw (PEPTIDE ID NO: 111) (peptide)
peptide: [dW][dL][dR][dV][dQ][dV][dK][dW]
B47: wrlkvrw (PEPTIDE ID NO: 289) (peptide)
peptide: [dW][dR][dL][dK][dV][dR][dW]
B48: riklrw (PEPTIDE ID NO: 24) (peptide)
peptide: [dR][dI][dK][dL][dR][dW]
B49: wfkiklel (PEPTIDE ID NO: 110) (peptide)
peptide: [dW][dF][dK][dI][dK][dL][dE][dL]
B50: lkiriayh (PEPTIDE ID NO: 303) (peptide)
peptide: [dL][dK][dI][dR][dI][dA][dY][dH]
B51: fkirihhy (PEPTIDE ID NO: 122) (peptide)
peptide: [dF][dK][dI][dR][dI][dH][dH][dY]
B52: wrlkveww (PEPTIDE ID NO: 313) (peptide)
peptide: [dW][dR][dL][dK][dV][dE][dW][dW]
B53: lkiwihyh (PEPTIDE ID NO: 299) (peptide)
peptide: [dL][dK][dI][dW][dI][dH][dY][dH]
B54: twrlkvrw (PEPTIDE ID NO: 205) (peptide)
peptide: [dT][dW][dR][dL][dK][dV][dR][dW]
B55: lairihyh (PEPTIDE ID NO: 309) (peptide)
peptide: [dL][dA][dI][dR][dI][dH][dY][dH]
B56: lrvqvrl (PEPTIDE ID NO: 441) (peptide)
peptide: [dL][dR][dV][dQ][dV][dR][dL]
B57: wnlkvrw (PEPTIDE ID NO: 294) (peptide)
peptide: [dW][dN][dL][dK][dV][dR][dW]
B58: wrlevrww (PEPTIDE ID NO: 288) (peptide)
peptide: [dW][dR][dL][dE][dV][dR][dW][dW]
B59: rirwrw (PEPTIDE ID NO: 50) (peptide)
peptide: [dR][dI][dR][dW][dR][dW]
B60: wrlhvrww (PEPTIDE ID NO: 292) (peptide)
peptide: [dW][dR][dL][dH][dV][dR][dW][dW]
B61: rrlkvrwr (PEPTIDE ID NO: 439) (peptide)
peptide: [dR][dR][dL][dK][dV][dR][dW][dR]

These binders were tested against Tau40 P301L protein (human) (assay: cell-based or functional assay).

Row | Binder | IC50, Tau40 assay (ThT)
1 | B1 | 1980 nM
2 | B2 | 2270 nM
3 | B3 | 1940 nM and 1950 nM
4 | B4 | 1770 nM
5 | B5 | 2040 nM and 2200 nM
6 | B6 | 1880 nM
7 | B7 | 1870 nM
8 | B8 | 2050 nM
9 | B9 | 2380 nM and 2610 nM
10 | B10 | 1870 nM and 1910 nM and 870 nM
11 | B11 | 740 nM
12 | B12 | 1810 nM
13 | B13 | 1690 nM
14 | B14 | 2170 nM
15 | B15 | 2070 nM
16 | B16 | 2360 nM
17 | B17 | 2020 nM
18 | B18 | 1870 nM
19 | B19 | 2110 nM and 2410 nM
20 | B20 | 1730 nM and 1760 nM
21 | B21 | 710 nM

Row | Binder | IC50, Tau40 assay (ThT)
22 | B22 | 2280 nM
23 | B23 | 2210 nM
24 | B24 | 2400 nM
25 | B25 | 1740 nM and 1840 nM
26 | B26 | 1790 nM
27 | B27 | 1860 nM and 2190 nM
28 | B28 | 1990 nM
29 | B29 | 1780 nM and 2430 nM
30 | B30 | 1900 nM
31 | B31 | 2070 nM
32 | B32 | 2020 nM
33 | B33 | 1940 nM
34 | B34 | 740 nM and 810 nM
35 | B35 | 1940 nM
36 | B36 | 1710 nM and 1760 nM
37 | B37 | 720 nM
38 | B38 | 1850 nM
39 | B39 | 2070 nM
40 | B40 | 2340 nM
41 | B41 | 1840 nM and 1880 nM
42 | B42 | 2230 nM

Row | Binder | IC50, Tau40 assay (ThT)
43 | B43 | 1670 nM and 1710 nM
44 | B44 | 1910 nM and 2450 nM
45 | B45 | 2260 nM and 950 nM and 2390 nM and 820 nM
46 | B46 | 2180 nM and 2210 nM
47 | B47 | 1770 nM
48 | B48 | 2030 nM and 2060 nM
49 | B49 | 1770 nM and 2530 nM
50 | B50 | 2030 nM
51 | B51 | 1890 nM and 910 nM
52 | B52 | 2300 nM
53 | B53 | 1910 nM
54 | B54 | 750 nM
55 | B55 | 2190 nM
56 | B56 | 2130 nM
57 | B57 | 1820 nM
58 | B58 | 1720 nM
59 | B59 | 2020 nM
60 | B60 | 1820 nM
61 | B61 | 1680 nM
